Measured values reported in patent US20260042834A1 (HBM ALPHA THERAPEUTICS, published 2026).
Where two headings read alike, the source gives them in different places. Values belong to the binder of their own block, whether it stands above or below them.

Tests used:
human UCN1 peptide = target: T1, human UCN1 peptide (human, UniProt P55089 83-122, not fully specified; biotin at N- or C-terminus in the ELISA); test: cell-based or functional assay
T1 peptide (looked up): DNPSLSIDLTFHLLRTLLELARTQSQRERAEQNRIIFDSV

human UCN2 peptide [1] = target: T2, human UCN2 peptide (human, UniProt Q96RP3 72-109, limits assumed, not fully specified; biotin at N- or C-terminus in the ELISA); test: ELISA, biotinylated hUCN2 on streptavidin plates
T2 construct: also called hUCN2; hUCN2 (NT Biotin)
T2 peptide (looked up): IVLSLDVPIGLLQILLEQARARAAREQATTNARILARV
Procedure: (§1) Streptavidin (Thermo, Cat: 21125) was diluted in PBS with a concentration of 2 μg/mL. 100 μL of diluted streptavidin was added per well to ELISA microplates, and the plates were incubated overnight at 4° C. Plates were blocked with ELISA blocking solution (containing 2% w/v BSA, 0.05% (v/v) Tween-20, pH 7.4 PBS buffer) at 37° C. for 1 hour, and then incubated with either 1 μg/mL hUCN1 (NT Biotin), hUCN1 (CT Biotin), hUCN2 (NT Biotin), hUCN2 (CT Biotin), hUCN3 (NT Biotin), or hUCN3 (CT Biotin) for 1 hour at 37° C. […] 100 μl of TMB Substrate (Biopanda, Cat: TMB-S-003) was added, and the plates were incubated at room temperature for 15 minutes. 100 μL of ELISA stopping solution (Solarbio, Cat #: C1058) was then added to terminate the reaction, and the OD450 nm was determined by an ELISA plate reader (Molecular Devices, Spectra max 384 plus).

human UCN3 peptide [2] = target: T3, human UCN3 peptide (human, UniProt Q969E3 120-157, not fully specified; biotin at N- or C-terminus in the ELISA); test: ELISA, biotinylated hUCN3 on streptavidin plates
T3 construct: also called hUCN3; hUCN3 (NT Biotin)
T3 peptide (looked up): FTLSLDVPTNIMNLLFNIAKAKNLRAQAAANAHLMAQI
Procedure: as §1

biotinylated CRH = target: T4, biotinylated CRH (human and mouse, not fully specified; biotinylated, position not stated); test: Octet BLI, biotinylated CRH on SA sensor
T4 construct: also called Biotin-CRH; biotin-labeled CRH
T4 peptide: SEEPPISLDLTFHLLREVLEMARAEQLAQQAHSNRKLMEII

N-Terminal CRH = target: T5, N-Terminal CRH (human and mouse, C-terminal K-Biotin); test: ELISA, biotin peptide on streptavidin plate
T5 construct: also called N-Ter-CRH (CT-Bion)
T5 peptide: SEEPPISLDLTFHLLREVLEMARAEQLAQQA
Outline: (§2)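 First, streptavidin (2 μg/ml in PBS) is coated onto wells overnight at 4° C. Then, following peptide capture and binding, TMB is added for 15 minutes at room temperature. Finally, the reaction is stopped and OD450 nm is measured.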

CRH (CT Biotin) [3] = target: T6, CRH (CT Biotin) (human and mouse, C-terminal K-Biotin); test: ELISA on streptavidin-captured CRH (CT biotin), OD450
T6 construct: also called Peptide 4 (CRH-Biotin)
T6 peptide: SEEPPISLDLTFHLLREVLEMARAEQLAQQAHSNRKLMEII
Procedure: (§3) Streptavidin (Thermo, Cat: 21125) was diluted in PBS to a concentration of 2 μg/ml. 100 μl of diluted streptavidin was added per well to ELISA microplates, and the plates were incubated overnight at 4° C. […] 100 μL of 3,3′,5,5′-tetramethylbenzidine (TMB) substrate (Biopanda, Cat: TMB-S-003) was added, and the plates were incubated at room temperature for 15 minutes. 100 μL of ELISA stopping solution (Solarbio, Cat #: C1058) was added to terminate the reaction, and the optical density at 450 nm (OD450 nm) was determined by an ELISA plate reader (Molecular Devices, Spectra max 384 plus).

CRH (NT Biotin) [4] = target: T7, CRH (NT Biotin) (human and mouse, not fully specified; biotin at the N-terminus); test: ELISA on streptavidin-captured CRH (NT biotin), OD450
T7 peptide: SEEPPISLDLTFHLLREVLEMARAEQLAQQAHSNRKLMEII
Procedure: as §3

hUCN1 (NT Biotin) [5] = target: T8, hUCN1 (NT Biotin) (human, UniProt P55089 83-122, biotin at the N-terminus); test: ELISA on streptavidin-captured hUCN1 (NT biotin), OD450
T8 construct: also called human UCN1 (NT biotin)
T8 peptide (looked up): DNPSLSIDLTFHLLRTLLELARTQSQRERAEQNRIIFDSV
Procedure: as §3

human UCN2 peptide [6] = target: T2, human UCN2 peptide; test: ELISA on streptavidin-captured hUCN2 (NT biotin) and hUCN2 (CT biotin), mAb at 100 nM and 10 nM, OD450
Procedure: as §1

human UCN3 peptide [7] = target: T3, human UCN3 peptide; test: ELISA on streptavidin-captured hUCN3 (NT biotin) and hUCN3 (CT biotin), mAb at 100 nM and 10 nM, OD450
Procedure: as §1

[8] = target: T9, corticotropin-releasing hormone (CRH) peptide (human and mouse, not fully specified); test: cell-based or functional assay
T9 peptide: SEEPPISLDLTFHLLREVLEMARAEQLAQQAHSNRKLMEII

CRH (CT-Biotin) [9] = target: T10, CRH (CT-Biotin) (human and mouse, biotin on the added C-terminal K (-K-Biotin)); test: ELISA on streptavidin-captured CRH (CT biotin), OD450
T10 construct: also called Peptide 4 (CRH-Biotin); C-terminally biotinylated corticotropin-releasing hormone
T10 peptide: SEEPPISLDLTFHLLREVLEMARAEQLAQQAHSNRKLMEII
Procedure: as §3

CRH (NT-Biotin) [10] = target: T11, CRH (NT-Biotin) (human and mouse, not fully specified; biotin at the N-terminus); test: ELISA on streptavidin-captured CRH (NT biotin), OD450
T11 construct: also called Biotin-CRH; N-terminally biotinylated corticotropin-releasing hormone
T11 peptide: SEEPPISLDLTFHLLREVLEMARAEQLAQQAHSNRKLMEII
Procedure: as §3

CRH (CT-Biotin) [11] = target: T10, CRH (CT-Biotin); test: ELISA on streptavidin-captured CRH (CT biotin), OD450
Procedure: as §3

CRH (NT-Biotin) [12] = target: T11, CRH (NT-Biotin); test: ELISA on streptavidin-captured CRH (NT biotin), OD450
Procedure: as §3

CRH (CT-Biotin) [13] = target: T10, CRH (CT-Biotin); test: ELISA, C-terminally biotinylated CRH on streptavidin-coated plate
Procedure: as §3

CRH (NT-Biotin) [14] = target: T11, CRH (NT-Biotin); test: ELISA, N-terminally biotinylated CRH on streptavidin-coated plate
Procedure: as §3

[15] = target: T12, corticotropin-releasing hormone (CRH) peptide (human and mouse, not fully specified); test: cell-based or functional assay
T12 peptide: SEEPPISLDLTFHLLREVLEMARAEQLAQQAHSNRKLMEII

CRH (NT Biotin) [16] = target: T7, CRH (NT Biotin); test: ELISA, biotin peptide on streptavidin plate
Outline: as §2

CRH (CT Biotin) [17] = target: T6, CRH (CT Biotin); test: ELISA, biotin peptide on streptavidin plate
Outline: as §2

hUCN1 (CT Biotin) = target: T13, hUCN1 (CT Biotin) (human, UniProt P55089 83-122, biotin at the C-terminus); test: ELISA on streptavidin-captured hUCN1 (CT biotin), mAb at 100 nM and 10 nM; axis labelled RLU, scale 0-4
T13 construct: also called human UCN1 (CT biotin)
T13 peptide (looked up): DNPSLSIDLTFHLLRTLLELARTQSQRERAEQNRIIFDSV
Procedure: as §1, with “100 μL of ELISA stopping solution (Solarbio, Cat #: C1058) was then added to terminate the reaction, and the OD450 nm was determined by an ELISA plate reader (Molecular Devices, Spectra max 384 plus).” left out

hUCN1 (NT Biotin) [18] = target: T8, hUCN1 (NT Biotin); test: ELISA on streptavidin-captured hUCN1 (NT biotin), mAb at 100 nM and 10 nM; axis labelled RLU, scale 0-4
Procedure: as §1

human UCN2 peptide [19] = target: T2, human UCN2 peptide; test: ELISA on streptavidin-captured hUCN2 (NT biotin) and hUCN2 (CT biotin), mAb at 100 nM and 10 nM; axis labelled RLU, scale 0-4
Procedure: as §1

human UCN3 peptide [20] = target: T3, human UCN3 peptide; test: ELISA on streptavidin-captured hUCN3 (NT biotin) and hUCN3 (CT biotin), mAb at 100 nM and 10 nM; axis labelled RLU, scale 0-4
Procedure: as §1

B2: PR302309-18 (antibody, human IgG1, kappa, V domains shown)
VH: QVQLVQSGAEVKKPGASVKVSCKASGYTFTNYGMNWVRQAPGQRLEWMGWINTYTGEPIYTDDFKGRVTITRDTSASTAYMELSSLRSEDTAVYYCARSTMITTGGVFAYWGQGTLVTVSS
VL: DVVMTQSPLSLPVTLGQPASISCRSSQTIVHSDGNTYLEWYQQRPGQSPRLLIYKVSNRFSGVPDRFSGSGSGTDFTLKISRVEAEDLGVYYCFQGSHVPWTFGGGTKVEIKR
notes: Humanized variant of PR302309
- Kd (biotinylated CRH): < 0.001 nM
- koff (biotinylated CRH): < 1e-07 s⁻¹
- kon (biotinylated CRH): 126000 M⁻¹ s⁻¹
- EC50 (N-Terminal CRH): 0.028 nM
- EC50 (read off the curve) (CRH (CT Biotin) [3]): ~0.03 nM
- EC50 (read off the curve) (CRH (NT Biotin) [4]): ~0.03 nM
- EC50 (read off the curve) (hUCN1 (NT Biotin) [5]): ~0.1 nM
- binding result (human UCN2 peptide [6]): no binding (tested: 100 nM)
- binding result (human UCN3 peptide [7]): no binding (tested: 100 nM)

B3: PR004290 (antibody, human IgG1, kappa, V domains shown)
VH: EVQLVESGGVLVQPGGSLRLSCAASGFTFSSYWMTWVRQAPGKGLEWVANIKQDGSEKYYVDSVKGRFTISRDNAKNSLFLQMNSLRAEDTAVYYCARTLIFDYWGQGTLVTVSS
VL: DIVMTQSPLSLPVTPGEPASISCRSSQSLLHSTGYNSLEWYLQKPGQSPQLLIYLGSNRASGVPDRFSGSGSGTDFTLKISRVEAEDVGIYYCMQTLQTPITFGQGTRLEIKR
notes: Expressed recombinantly with human IgG1 wildtype Fc; also called Hybridoma Clone 28b3; Series 1 mAb
- hCRHR1 Reporter IC50 [8]: 3.69 nM
- EC50 (read off the curve) (CRH (CT-Biotin) [9]): ~0.01 nM
- EC50 (read off the curve) (CRH (NT-Biotin) [10]): ~0.05 nM
- EC50 (read off the curve) (CRH (CT-Biotin) [11]): ~0.03 nM
- EC50 (read off the curve) (CRH (NT-Biotin) [12]): ~0.01 nM
- EC50 (CRH (CT-Biotin) [13]): 0.032 nM
- EC50 (CRH (NT-Biotin) [14]): 0.029 nM

Results, then the binder that gave them:

- potency on hUCN1-induced against CRH-induced hCRHR1 reporter activity (human UCN1 peptide): 267 fold lower
- binding result (human UCN2 peptide [1]): no binding (tested: 100 nM)
- binding result (human UCN3 peptide [2]): no binding (tested: 100 nM)
B1: PR302341-55 (antibody, human IgG1, kappa, V domains shown)
VH: QVQLVQSGAEVKKPGASVKVSCKASGYTFTDYFMKWVRQAPGQRLEWMGVINPNNADIFYNQKFKGRVTITRDTSASTAYMELSSLRSEDTAVYYCARGTDRALFAYWGQGTLVTVSS
VL: DVVMTQSPLSLPVTLGQPASISCRSGQSIVHSDGNTYLEWYQQRPGQSPRLLIYKVSNRFSGVPDRFSGSGSGTDFTLKISRVEAEDLGVYYCFQGSHIPWTFGGGTKVEIKR
notes: Humanized, PTM-removed variant of PR302341

- CHO-CRE-hCRHR1 0.5 nM CRH IC50 [15]: 1.1 nM
- Kd (biotinylated CRH): < 0.001 nM
- koff (biotinylated CRH): < 1e-07 s⁻¹
- kon (biotinylated CRH): 329000 M⁻¹ s⁻¹
- EC50 (CRH (NT Biotin) [16]): 0.029 nM
- EC50 (CRH (CT Biotin) [17]): 0.028 nM
- EC50 (N-Terminal CRH): 0.029 nM
- binding result (hUCN1 (CT Biotin)): no binding (tested: 100 nM)
- binding result (hUCN1 (NT Biotin) [18]): no binding (tested: 100 nM)
- binding result (human UCN2 peptide [19]): no binding (tested: 100 nM)
- binding result (human UCN3 peptide [20]): no binding (tested: 100 nM)
B4: PR302334-26 (antibody, human IgG1, kappa, V domains shown)
VH: EVQLVESGGGLVQPGGSLRLSCAASGFTFSTYAMSWVRQAPGKGLEWVASIRSGGTTYYPDSVKGRFTISRDNSKNSLYLQMNSLRAEDTAVYYCTRGIDWGQGTTVTVSS
VL: DIVMTQSPDSLAVSLGERATINCKASQSVNNDVAWYQQKPGQPPRLLIYYASNRYTGVPDRFSGSGSGTDFTLTISSLQAEDLAVYFCQQDYSSWTFGGGTKVEIKR
notes: Humanized variant of PR302334
